In the supplement of paper PMC10567573:
± gives the standard deviation.

Assay: protein stability index of a GFP-peptide fusion (GPS, HEK-293T) (PSI 1-6); higher = more stable
Conditions: c terminus: a fixed tail appended
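Note: 24-mer peptide tiles fused after GFP, lentivirally expressed, FACS-sorted into six equal bins by GFP/DsRed ratio, decoded by Illumina sequencing, PSI is the read-weighted mean bin number.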

Sequence | protein stability index (treatment: DMSO) | protein stability index (treatment: MLN4924 1 uM, 8 h)
KDPRDPEESKEPKEEKQRRRCKPK [GNAS] | 5.37 ± 0.26 | 5.26 ± 0.3
KDRRFAYGRSDVVVLCFSIANPNS [RHOBTB1] | 2.74 ± 0.54 | 2.34 ± 0.46
KEAVTGSRLGQGIGPIHLNEIQCT [LOXL2] | 3.77 ± 0.61 | 3.93 ± 0.47
KEPATMSWLEENVHEVLQAVDAGD [TCF25] | 5.05 ± 0.25 | 5.13 ± 0.17
KETDPLTFNFISSLKAICTEIANC [PLD5] | 2 ± 0.27 | 2.05 ± 0.1
KEVMLFGHGTRKRVPLGRLELLEE [RSAD1] | 3.6 ± 0.19 | 3.59 ± 0.28
KEYAAKFIKKRRLSSSRRGVSREE [DAPK3] | 4.15 ± 0.15 | 4.379 ± 0.041
KGAAAAAAASGAAGGGGGGAGAGA [INTS3] | 5.26 ± 0.42 | 5.3 ± 0.27
KGALQKKPLYVAFSFMYILVGLTV [KCNK9] | 3.46 ± 0.47 | 2.85 ± 0.51
KGAPASWWNHMHFQHHAKPNCFRK [FADS1] | 2.87 ± 0.18 | 3.01 ± 0.43
KGGNLRDKLDGNELDLSLSDLNEV [LRRC59] | 4.86 ± 0.075 | 5.11 ± 0.17
KGKDNKHPMYRRLVHSAVDVPTIQ [ZMYND11] | 3.71 ± 0.18 | 3.71 ± 0.28
KHSNKKVMRTKSSEKAANDDHSVR [CPXM2] | 5.13 ± 0.29 | 5.2 ± 0.22
KIDYCASSNHGCQHECVNTDDSYS [MATN2] | 4.37 ± 0.18 | 4.5 ± 0.18
KKKPGTAMCVGCGSQIHDQFILRV [ISL2] | 2.36 ± 0.37 | 2.23 ± 0.29
KKLRFHPKQLYFSARQGELQKVLL [EHMT1] | 3.28 ± 0.71 | 2.63 ± 0.45
KLEPIKSRAPQLHLEYRFYKQLGS [CSNK1G1] | 2.06 ± 0.76 | 2.27 ± 0.21
KLFDVPSLNGVYPRMNEVYTRLGE [CEP70] | 2.65 ± 0.17 | 2.53 ± 0.34
KLKLVALHKQVLMGPYNPDTCPEV [ACBD3] | 2.38 ± 0.28 | 2.72 ± 0.32
KLNLPDYHKIIKNPMDMGTIKKRL [BRD3] | 2.41 ± 0.17 | 2.48 ± 0.42
KMGGKDFSFRYQQELEEEIKELYE [ATL3] | 2.52 ± 0.51 | 2.87 ± 0.32
KMNFSTLRNIQGLFAPLKLQMEFK [POMP] | 2.2 ± 0.36 | 2.02 ± 0.098
KNGLPSPERSYVFNGDFVDRGKDS [PPEF2] | 4.7 ± 0.079 | 4.76 ± 0.18

Sequence | protein stability index (treatment: DMSO) | protein stability index (treatment: MLN4924 1 uM, 8 h)
KNRYANVIAYDHSRVLLSAIEGIP [PTPRD] | 2.27 ± 0.82 | 2.26 ± 0.4
KPVDIWACGVILYILLVGYPPFWD [CAMK2B] | 3.27 ± 0.31 | 3.03 ± 0.17
KPVGRQACDLQPCPTEPPDDSCQD [ADAMTSL2] | 5.46 ± 0.34 | 5.76 ± 0.075
KPYACDECAKAFSRSAILIQHRRT [ZNF396] | 2.12 ± 0.11 | 2.37 ± 0.19
KRRQLEDERRQLQHLKSKALRERW [PALM] | 3.93 ± 0.3 | 4.22 ± 0.57
KSFSMANGMNAVMMHGRSYSLASG [RAB40C] | 3.08 ± 0.26 | 3.03 ± 0.098
KSNFRVQLFEDPTVDKEVEIRKKV [MNAT1] | 4.65 ± 0.33 | 4.69 ± 0.38
KSQIMSLSHSPQEDWVLLGMANGQ [TLE6] | 3.15 ± 0.2 | 3.12 ± 0.17
KSRLVQLPPVAVRSLQDLARIAIR [PCMTD2] | 3.52 ± 0.19 | 3.7 ± 0.073
KSSGKHYGQFTCEGCKSFFKRSVR [NR2F2] | 2.37 ± 0.18 | 2.68 ± 0.41
KSTSIQVIVKEGGLKLIQIQDNGT [MLH1] | 2.18 ± 0.53 | 2.54 ± 0.56
KTIKRPFGVKYNPYTRSIQILKDT [TPH1] | 2.35 ± 0.2 | 2.19 ± 0.22
KVKKSGSRVMFLLVDKETDKRHVE [PDZK1] |  | 3.4 ± 0.19
KVLRKAGLSAGYVDAGAEPGRSRM [LPCAT4] | 3.6 ± 0.31 | 3.73 ± 0.25
KVPSEAPSPMPTHRSYLGPGSTSP [SLC6A17] | 4.66 ± 0.069 | 4.71 ± 0.32
KVVQSLLNHGASVNNTTLTNSTPL [FEM1C] | 2.77 ± 0.21 | 2.83 ± 0.24
KWKVGIPSDPLVSIGALISKAHLE [ALDH8A1] | 2.48 ± 0.11 | 2.74 ± 0.17
KWTACSRSCGGGVTSQERHCLQQR [ADAMTSL2] | 2.75 ± 0.51 | 3.37 ± 0.59
LAGQKDELQLSDLLKQGYNKTLLR [PKD2L1] | 3.24 ± 0.23 | 3.39 ± 0.4
LAHAFQPGPGIGGDAHFDEDERWT [MMP1] | 4.73 ± 0.14 | 4.53 ± 0.21
LAVGTDLYGQRNSAPEQELLVQDA [GFOD1] | 4.66 ± 0.22 | 4.69 ± 0.36
LCKIGSERSLVLDRLASNVAKRKS [IKZF1] | 3.83 ± 0.24 | 3.93 ± 0.28
LCQKQVKAQLPRRESERRNHSLAR [FBXO28] | 3.81 ± 0.14 | 4.23 ± 0.17

Sequence | protein stability index (treatment: DMSO) | protein stability index (treatment: MLN4924 1 uM, 8 h)
LDEIPDDEDLDLIPPKSVNPTCMC [FAM219A] | 5.07 ± 0.16 | 5.16 ± 0.31
LDGALRTFLKAFPLMGETQERERV [PSD2] | 2.96 ± 0.098 | 2.88 ± 0.25
LDGLIQQCGETMKETVNVKTVCGY [GMCL1] | 3.1 ± 0.33 | 3.37 ± 0.36
LDQLLDMPAAGLAVQLRHAWNPED [SPSB4] | 3.44 ± 0.28 | 3.68 ± 0.16
LEAGASAASTAAALENLQVEASCS [TRIM39] | 5.36 ± 0.2 | 5.3 ± 0.37
LEEENKERAKREMVMYSITVAFWL [MFF] | 2.29 ± 0.55 | 2.82 ± 0.46
LEELGTLNVFQTVSRMRTQRAFSI [PTPN9] | 2.48 ± 0.12 | 2.23 ± 0.17
LEKSNKNFSKKIQQIHVVSQFKIL [VPS39] | 2.17 ± 0.24 | 2.07 ± 0.26
LELVKYLLAAGANVHATTATGDTA [ANKRD17] | 2.16 ± 0.25 | 2.08 ± 0.4
LERVRVSCTIIFLASIFQLAMWTT [TMEM175] | 3.24 ± 0.4 | 3.29 ± 0.23
LFAFMLVYPKEFHLNRGNHEDHMV [PPEF2] | 3.03 ± 1 | 2.32 ± 0.35
LFGFYFCMPLVCTAIFYTLMTCEM [EDNRA] | 3.11 ± 0.33 | 3.14 ± 0.42
LFVGVDCFLLTAMAYDQFLAICRP [OR3A1] | 3.63 ± 0.6 | 3.13 ± 0.071
LGAMMLLESPIDPQPLSFKEPPLL [APMAP] | 2.41 ± 0.11 | 2.5 ± 0.45
LGDTQFCFRFRQSSGRRVSLHCLL [DENND6A] | 2.89 ± 0.48 | 2.65 ± 0.59
LGIPKNPWLWSEQQVCQWLLWATN [ETS2] | 2.29 ± 0.3 | 2.33 ± 0.15
LGNVAEVKELRPQLMTSQFISVFS [ZER1] | 2.55 ± 0.3 | 2.34 ± 0.28
LGPQVSLDPMKNVTCENGLPAVVS [LOXL2] | 4.3 ± 0.97 | 4.12 ± 0.25
LGRTGLYPSYKVREKIETVKYPTY [FUT8] | 2.42 ± 0.12 | 2.51 ± 0.14
LHARLRELLCELGRPSMVWLSANP [PRAME] | 2.65 ± 0.57 | 2.39 ± 0.42
LHLASDFFLKHPDKDVRLLVACCL [PDS5B] | 2.23 ± 0.79 | 2.39 ± 0.43
LHLGLPWRMLRPQLVNSSADNMLE [PPEF2] | 2.87 ± 0.31 | 2.67 ± 0.48
LHVWQITWAMRQRGTHAVVGVATA [SPSB1] | 2.58 ± 0.31 | 2.51 ± 0.64

Sequence | protein stability index (treatment: DMSO) | protein stability index (treatment: MLN4924 1 uM, 8 h)
LICLKKNHEEEVNTLRSQLGDRLN [KRT34] | 3.33 ± 0.21 | 3.45 ± 0.37
LIDQRYFQVLCSINSIIHNPRAPV [CEP70] |  | 2.07 ± 0.12
LIYTVMLAFRSGSDNLLVILKRKW [SLC35F2] | 2.3 ± 0.91 | 1.84 ± 0.51
LKDIFMFITRQLKGLEDTKSPQFN [PDS5B] | 2.11 ± 0.058 | 2.54 ± 0.31
LKDIHDDQDYLHSLGKARTAQVQK [FLOT1] | 4.67 ± 0.18 | 4.56 ± 0.24
LKGSRVSILFGHENRVSTLRVSPD [GNB5] | 2.96 ± 0.15 | 3.02 ± 0.29
LKGYLYAVGGRNAAGELPTVECYN [KLHL13] | 2.37 ± 0.51 | 2.67 ± 0.34
LKKEPGHPWKWSNGKEFNNWFNVT [CD69] | 2.14 ± 0.13 | 2.23 ± 0.25
LKNKKGAKQQKFIKAVTHQVKFGQ [ZC3H15] | 3.14 ± 0.57 | 3.25 ± 0.39
LKYLHEQEILHRDLKLGNFFINEA [PLK2] | 1.85 ± 0.18 | 1.97 ± 0.3
LLEQSLEEFAQAESKDQGKTLALA [ALDH8A1] | 4.68 ± 0.33 | 4.68 ± 0.14
LLKYRAREPVTKAEMLGSVVGNWQ [MAGEA3] | 2.39 ± 0.2 | 2.51 ± 0.28
LLLYRIRKDVGCNRFEVTLEKSNK [VPS39] | 2.21 ± 0.35 | 2.14 ± 0.3
LLSCGKILTGCKNMLFQQNKDGIG [ACSBG2] | 2.13 ± 0.42 | 2.23 ± 0.17
LLSRLEEEEQDILQRLRENAAHLG [TRIM39] | 3.63 ± 0.16 | 3.71 ± 0.33
LLSRNQLSTAASLGPSGLQNHGQH [LCOR] | 3.28 ± 0.095 | 3.46 ± 0.23
LMDGGDLPSVTDIRRPRLYLLQWL [PLK2] | 2.48 ± 0.17 | 2.5 ± 0.27
LMSESEWRNLGVQQSQGWVHYMIH [CKS1B] | 2.42 ± 0.35 | 2.05 ± 0.31
LNGSSQPTTRNYPELNNNQYNRSS [CDC14A] | 4.19 ± 0.17 | 4.34 ± 0.09
LNPSKLMEKEINGSKVTCRGLLEY [ATL3] | 2.92 ± 0.29 | 2.96 ± 0.2
LPCARVQICRAQGLETLFSKAQEL [ZSWIM9] | 2.87 ± 0.51 | 2.33 ± 0.79
